# Target: SARS-CoV-2 B.1 (Wuhan) RBD
# Assay: BLI
substance,measurement,value
CR3022,Kd,22.1 nM

# Reference: publication PMC10636138
